The nature of this data set: soluble on expression in E. coli; label from the status in PepcDB or PDB records.
As to “MSLRIGIVGVGFSEFRIHEEPFYNVAFLAAKRALEDAGIERGEVDSFILGGYDNLGVGRTISNMYTAPAAGAYLRHEIRVSDDALFALPLAFMKVKSGSEITMLLAFGHSSETPIELVELQSLDPFFHRPFNLSLPVFFAMQSYAYRERYGVKEEKIAEVVVRMREKGAKNPRAYIREKVSVEDVLSSEVVSSPLRRLEMAEWCDGCVAFILAEETVARRLSDSPVWVSGLGWSAENYYFDRSLHDLPFVAKSAEMAFKMSGKERKDVEALEISDLTADYYCMILEALGFAETGRGWEFNGDVNFSGGALCTNAYGSTGAFLLASIVERIRKGEIECGMAQSMSGYAQKSCVAILEGEGHHHHHH”, the “soluble on expression in E. coli” value is “soluble”.
On to “MSQQELFFEVRRNRSHIYLDAEESHSVMELKLMLAGITRDPVNHMELWKLDEDGNKSQLLHDTATLSDAGFSSTNAKAQCPAALGLRLTNAEEHLTISDVSTAPPIPDTMRQEQAPQE”, for which the “soluble on expression in E. coli” value is listed as “not soluble”.
For the sequence “MDPSSENNSPMVSPNDDKIVKITVSSVMQGVKQIVVEMKDKETVSILKNRIEQETEVLTNRQVLLFKGMELKDNNKTMTDCGINSDAKITMNVKMSTGIVTNPTTTDILLMMPPIFPTNQDQLRKEIKGMHTVHRKPKKMSGIDANASLWTPEKQMENEFTRNRMKTLLRRKKHAPILSGTPVDSEIGSAQTFSPVATPPGELSSPSTVSSHVSSGSEPESDAEVVTEKELKLFFDPPETIEEHKQCRRSMVLAPSSEEELLENLKKFEAERKTKCNTCFKKLSAAQQTMHCKCLRIFCDRHRHPKNHTCVIDYKQDGRNKLKKNNSKVGDGGWRKAKFES”, the “soluble on expression in E. coli” value is reported as “not soluble”.
For “GMELKSAEEKSLYYRNKIKEVIDEVGKVVVGQKYMINRLLIGICTGGHILLEGVPGLAKTLSVNTLAKTMDLDFHRIQFTPDLLPSDLIGTMIYNQHKGNFEVKKGPVFSNFILADEVNRSPAKVQSALLECMQEKQVTIGDTTYPLDNPFLVLATQNPVEQEGTYPLPEAQVDRFMMKIHLTYLDKESELEVMRRVSNMNFNYQVQKIVSKNDVLEIRNEINKVTISESLEKYIIELVFATRFPAEYGLEAEASYILYGASTRAAINLNRVAKAMAFFNNRDYVLPEDIKEVAYDILNHRIILNYEAEAEGISTRQIIETILRKVNITKA”, the “soluble on expression in E. coli” value is given as “soluble”.
The same measure for “MNVLRPTLLTLACLLASPGFADDLPSLGDASSAIVSPQQEYQLGRAWLALLRSQVSQLNDPQLKDYVETSVYKLVETSQVNDRRLEFILINSPQLNAFAAPGGIIGVNGGLFLNAQTEGEYASVLAHELAHLSQRHFARGVEAQQRMQVPMMAALLAGIVIAAAGAGDAGIATIAGTQAAAIQEQRRFSRQNEQEADRIGILNLEKAGYDPRSMPTMFERLMRQYRFDAKPPEFLLTHPVTESRIADTRNRAEQARQGGTEDSLRYQLIRARVQLTYEESPGLAAKRFRAQLDENPKNDIARYGLAIAQIKGSQWNEARENLKPLLAKSPNDVTYNLAQIELDMANSRLPDAQTRVERMLNLYPGNYPLNQIRVDLLLKQNRPADAEKALEGLLKSRPDDPDVWYLVAETRGLSGNIIGLHQARAEYFALVGDYRQAIQQLDFAKRRAGSNFPLSSRIDARQREMMDQEQMVKDMMRLEHHHHHH”: “soluble”; for “MGSDKIHHHHHHMAQLVAIDNKNHLNLKVDAAKAELHGAGLHLVPAVMAEFTSMAVQYPLVITKNADTGQFVVAAMLGFESGENLFWRGGQWQGLYLPLQIRRQPFFVGNPEQNSEQKVAGDYVVCFDSESPAIVSNDGQALFSEDGVDTEYFQQAKYCLAQLLEGELANKKLLEQLQSMELLQVMQMEVTFANQQSTTLNGLYTIDTEKLAALSAEKIASLHKAGLLQAIYTLITSLGQIHHLIDLKNKQLGC”: “not soluble”.
On to “SLTDSAAPRLHVQALSADCAEAARRWAERLGLPLEADDEAEFAVQVGEQGLQVLQLGADSPGPVRVDFVEGASAHRRKFGGGSGQMIAKAVGVQPGIRPRVLDATAGLGQDGFVLASLGCEVTLVERQPLIAALLEDGLERARRDPDVAPIAARMRLLGGNSADLMRAWDGEAPQVIYLDPMFPHRDKSALVKKEMRLFRPLVGDDLDAPALLQAALALASHRVVVKRPRKAPIIEGPKPGYSLEGKSSRYDIYPKKALGK”, for which the “soluble on expression in E. coli” value was “soluble”.
Regarding “MAFNDCFSLNYPGNPCPGDLIEVFRPGYQHWALYLGDGYVINIAPVDGIPASFTSAKSVFSSKALVKMQLLKDVVGNDTYRINNKYDETYPPLPVEEIIKRSEFVIGQEVAYNLLVNDCEHFVTLLRYGEGVSEQANRAISTVEFVTAAVGVFSFLGLFPKGQRAKYY”, the “soluble on expression in E. coli” value is listed as “not soluble”.
As to “AGNATEVPANSTVLSFCAFAVDPAKAYKDYLASGGQPITNCVKMLCTHTGTGQAITVTPEANMDQESFGGASCCLYCRCHIDHPNPKGFCDLKGKYVQIPTTCANDPVGFTLRNTVCTVCGMWKGYGCSCDQLREPLMQSADASTFLNGFAV”, the “soluble on expression in E. coli” value is listed as “soluble”.
With “MFQKVDAYAGDPILTLMERFKEDPRSDKVNLSIGLYYNEDGIIPQLQAVAEAEARLNAQPHGASLYLPMEGLNCYRHAIAPLLFGADHPVLKQQRVATIQTLGGSGALKVGADFLKRYFPESGVWVSDPTWENHVAIFAGAGFEVSTYPWYDEATNGVRFNDLLATLKTLQAGSIVLLHPCCHNPTGADLTNDQWDAVIEILKARELIPFLDIAYQGFGAGMEEDAYAIRAIASAGLPALVSNSFSKIFSLYGERVGGLSVMCEDAEAAGRVLGQLKATVRRNYSSPPNFGAQVVAAVLNDEALKASWLKEVEEMRTRILAMRQELVKVLSTEMPERNFDYLLNQRGMFSYTGLSAAQVDRLREEFGVYLIASGRMCVAGLNTANVQRVAKAFAAVM”, the “soluble on expression in E. coli” value is listed as “soluble”.
Consider “MSLEMYPKIEDIKASYQNYCEFLEKVNTINLLKHKGKYIHYEDFNDNQIKRKIEKLESSILKTNVKYQKGAYIIYYKLRPGVIEFLRTMSEKYEIYLYTMGTLEHAKSCLFLLDPLRKFFGNRVFSRKDCLNSLKHLNKILPTYRSVSICIDDSDYIWKENSSCIKVHGYNYFPDINFFEDIKRAPYFLTKFFTFAQSYLNFTSNIYRFINFKCSEHEEFLKEGHHHHHH”, for which the “soluble on expression in E. coli” value is recorded as “not soluble”.
Consider “MAHHHHHHMGQISSKEDEIEKQNIYATYPGLEQQLDMVFACHDISKQGKLSYKTVEMILRHFLMQCGFMEYVCRFVDENGTLDLKHVSNYLSIKKLMYKLKCCGESMLTLDEMKELVIIFLKKISDTYTEDQTKWLEQMKSSQEQQDKALEEAMYKYEKNILFHHAVKEQQILQNDKKLNEWNENVENAYEAQQEILRQFESSRKKNIDISLEKNNELIIAKDYIDKIKEAATDNKYDNSKCFIYPASSAPCGACTSAGAIIHHRRYKEKRRKKEYSLCL”, for which the “soluble on expression in E. coli” value is reported as “not soluble”.
For the sequence “MSLKALINGTIYTSFNPLKKVSGLVISHGKVIYAGDSEVAKKIVELSGGEIVDLKGKYVMPAFFDSHLHLDELGMSLEMVDLRGAKSIEELIQRLKRGKGRIIFGFGWDQDELGEWPTRKELNAIDKPVFIYRKCFHVAVANDKMLELLNLTPSKDFDEDTGIIKEKSLEEARKVINERVLTVEDYVYYIKRAQEHLLDLGVKSVSFMSVNEKALRALFYLEREGKLSINVFAYVTPEVLDKLESIGLGRFQGNRLTIAGVKLFTDGSLGARTALLSKPYSDDPSTSGQLVMEREELIRITEKARSLGLDVAIHAIGDKALDVALDVFETTGFPGRIEHASLVRDDQLERVKNLKVRLSVQPHFIISDWWIVERVGEERVKWVYRFKDLMKVAELGFSTDSPIEPADPWLTVDAAVNRGKGKVKLYELTKDQALDIKDALHSYTYGSARVSLASDIGKLEPGFKAEYIILDRDPLVVKEGHHHHHH”, the “soluble on expression in E. coli” value was “soluble”.
As to “MSLGAQADTILNVATAGDQNMVDYVKTWLGPKFEAAHPGVKVRVIGTGPGDAGSNKISEKLTAQQESGAQQWDIDVAVVHQKAGGEQVAKGLLQKYRQDIQTGGMVSSPSATQALGVNVDGYVMPMFLSQTAIAWNSDLVTTPPASYDELVAWTQKHPQAFGYNGIKNGMSGVSFVVGWIYAYGTDAQRLSAGPYDKSVEKGWQQAYEKLKAFNKNVTFTPGNAGTLDMLSRGEIAMGPVWVDMFYSWKDQGKLPPSIKLALLAPGMPGQPMYYVIPAKAANPQLARDFIALATSPEVQAQGIVKQFNWYPGIDAGQVKPKLDAATWQKLFAEISPEALAKYGKSFPIAPYFDDIKEGYESQVANEGHHHHHH”, the “soluble on expression in E. coli” value is “soluble”.
Consider “MRGSHHHHHHGSESETLTAKATITTTTLPSHDETKTESTEFEKNQKRYQDLISTFPHEKGWRPKEPLIEYGGYWWLPSLLEGCIHAQEFFQARPSDFLVCSYPKTGTTWLKALTFAIANRSRFDDSSNPLLKRNPHEFVPYIEIDFPFFPEVDVLKDKGNTLFSTHIPYELLPDSVVKSGCKMVYIWREPKDTFISMWTFLHKERTELGPVSNLEESFDMFCRGLSGYGPYLNHILAYWKAYQENPDRILFLKYETMRADPLPYVKSLAEFMGHGFTAEEEEKGVVEKVVNLCSFETLKNLEANKGEKDREDRPGVYANSAYFRKGKVGDWSNYLTPEMAARIDGLMEEKFKGTGLLEHGKKLN”, for which the “soluble on expression in E. coli” value was “soluble”.
As to “HHHHHHDYDIPTTENLYFQGAITLLTLIKTAEHWARQDIRTIEDSKLRALLTLCAVMTRKFSKSQLSLLCETHLRREGLGQDQAEPVLEVYQRLHSDKGGSFEAALWQQWDRQSLIMFITAFLNIALQLPCESSAVVVSGLRTLVPQSDNEE”, the “soluble on expression in E. coli” value is on record as “soluble”.
For “MSAAPGTISPPARELKTSAICGYLHRIEVRSIGLITRRRYWFALCDSTPYLYWYKDSDDIKCIGRVSLSGAAFTYDPREKGRFEIHSNNEVIALECSSDKQRNEWMKALQSTRKRSWKATKSKSDSSLDISSLTGRNSSSVLEECSSPSPVPPPRSPKPKKRTQFLTEEETDAETSSDVPHSSEETAEVVEDTDNTKIPAEGSATEWYLNPNGQLNERSLQMPKTIESPETVLKRLADQSIEAPFRAIRRNLSTWSRSRQNTSDEPVVGSRKGTVSSVDLTPEEKVIELSDKVSSLEEVVDSLRAALLLAQRNNEALQKIEDMGDNKEEMREYILEKERQVTELHISNSMNARRVRDLEDQNVRLEDTINDLQQSVEAFRESLRTKEELILRMCEEENREDLLGSISERSSNIPADANGLVSDVEVPEGILVDVSSVDCEEATRKVLDEENVRDIGELQDLVEGYRTQNQFLNAEIVQLHAITQSLEDREKKLIRQNFDLEACYYQLKSRYLMVLNHFKSPTKPGKIMEPGVLKELLEESARTPRESQQNLTDQLGFYKKDDFSESDDLLDTATFYMKKAGDVVEATKLEQSEEYMKWLQSWDAFLVNNTVSRQTAIMSSPDLKTLIRTGVPPAYRGRVWKIIVTHWVKDKQAELGNGYYQSMLRKAGTKKQDGSYDAAIKQIDLDLARTLPTNKLFDEPDSANIEKLRNVLYAFRYHNSHVGYCQGLNRLAAIALLNLDEQDSFWFLVACVEHLQPEGYYTSSLIGAVADQKVLRDLVAEKLPKLAAHLRALEVDLSLFALSWFLTCFVDVLPHSIYLTIFDAFLYEGNKVLFRFALALFKICEPHVLQCKTIGTVHQCLSKAQEHIIDFKSLAQVAFNELNPFPQKTIETKRQLYLTQLKDTGHCM”, the “soluble on expression in E. coli” value is “not soluble”.
“MGSDKIHHHHHHMEQIIRIGMDTSKHVFQLHGVNAAEEVVLRKKMRRKEMVAFFERAAPTVVALEACGGSHHWARLLEALGHDVKLIPPQYVKPYVKRGKNDAADAEALCEAVSRPTMRFVRVKTTDNQAALMLVGMRDRLVRNRTQLANAIRGYAAEFGLIAATGTSKVRSLLERIATDETLPELARELFGLHGREYDRLEDEIEKVEARLMAWHRTNECSRRLTRIPGVGPIGALMMVMKTPAPETFRSGRHFAAWLGLTPKDHSTAGRVRLGVITRAGDENLRSVLVAGATAVLRHVREDRGKNASPWLLDMLNRKPPKLVAVALANKIARVAWKLMVTGERYNPNAALSAYGQAA”: the “soluble on expression in E. coli” value was “not soluble”.
